Values quoted from earlier work in paper PMC4664829.
Like-named read-outs stand apart in the source and are kept apart here.

Assays:
[1] = molecular target: T1, Glu14 (UniProt position 14, GAILAEVIGTT); settings: proton release from EmrE
[2] = molecular target: T1, Glu14; experiment: kinetics; settings: TPP+ association with substrate-free EmrE

## EmrE (small multidrug resistance transporter) (Escherichia coli)
[1]
  pKa: 8.4
[2]
  pKa: 7.3
